Here are results for four molecules from patent publication US20250368729A1.

Assay [1] addresses synthetic amyloid-like fibrils of recombinant amyloidogenic λ6 variable domain protein (rVλ6Wil). Briefly: EuLISA, fibrils coated on plate (FIG. 13B).
Assay [2] shares this target. Briefly: EuLISA, fibrils coated on plate (FIG. 13A).

B1: humanized antibody VH6/VL3 (antibody, V domains shown)
VH: QVQLQESGPGLVKPSETLSLTCTVSGFSLSSYGVSWVRQPPGKGLEWLGVIWGDGSTNYHPNLMSRLSISKDTSKNQFSLKLSSVTAADTATYYCVTLDYWGQGTSVTVSS
VL: DVVMTQSPLSLPVTLGQPASISCRSSQSLVHRNGNTYLHWYLQRPGQSPRLLIYKVSNRFSGVPDRFSGSGSGTDFTLKISRVEAEDVGLYFCFQTTYVPNTFGGGTKLEIK
Take B1: the concentration for a half-maximal effect (EC50) in assay [1] and in assay [2] was 95 nM each time.

B2: humanized antibody VH10/VL4 (antibody, V domains shown)
VH: QVQLQESGPGLVKPSETLSLTCTVSGFSLSSYGVSWIRQPPGKGLEWLGVIWGDGSTNYHPNLMSRLSISKDTSKSQVLLKLSSVTAADTAVYYCVTLDYWGQGTSVTVSS
VL: DVVMTQSPLSLPVTLGQPASISCRSSQSLVHRNGNTYLHWFQQRPGQSPRLLIYKVSNRFSGVPDRFSGSGSGTDFTLKISRVEAEDVGVYFCFQTTYVPNTFGGGTKLEIK
With B2, the EC50 in assay [2] came to 17 nM.

B3: humanized antibody VH7/VL4 (antibody, V domains shown)
VH: QVQLQESGPGLVKPSETLSLTCTVSGFSLSSYGVSWIRQPPGKGLEWIGVIWGDGSTNYHPNLMSRVTISKDTSKNQVLLKLSSVTAADTAVYYCVTLDYWGQGTSVTVSS
VL: DVVMTQSPLSLPVTLGQPASISCRSSQSLVHRNGNTYLHWFQQRPGQSPRLLIYKVSNRFSGVPDRFSGSGSGTDFTLKISRVEAEDVGVYFCFQTTYVPNTFGGGTKLEIK
With B3, in assay [2], the EC50 was 75 nM.

B4: humanized antibody VH8/VL4 (antibody, V domains shown)
VH: QVQLQESGPGLVKPSETLSLTCTVSGFSLSSYGVSWIRQPPGKGLEWIGVIWGDGSTNYHPNLMSRVTISKDTSKSQFSLKLSSVTAADTAVYYCVTLDYWGQGTSVTVSS
VL: DVVMTQSPLSLPVTLGQPASISCRSSQSLVHRNGNTYLHWFQQRPGQSPRLLIYKVSNRFSGVPDRFSGSGSGTDFTLKISRVEAEDVGVYFCFQTTYVPNTFGGGTKLEIK
Regarding B4, the EC50 in assay [2] was determined as 16 nM.
